From patent US12673132B2, “Extrusion printing of biocompatible scaffolds” (William Marsh Rice University, priority 2020, dated 2026)
No end group written: not given here.

What was measured:
[1] = microCT physical characterization of 3D printed PCL constructs; format: physicochemical; conditions: melt-extruded 4-layer crosshatch scaffold
Method: The 3D printed PCL constructs were fabricated by melt extrusion with an EnvisionTEC 3D Bioplotter Manufacturer (Gladbeck, Germany). The polymer of interest was placed in a metal cartridge, heated to 85-95° C., and extruded through a 27G needle at 4.9-5.1 bar pressure, 4.0 mm/s deposition speed, and 0.4 s pre-flow and post-flow, with imaging after each layer. Constructs were printed as a cylindrical, alternating crosshatch pattern with 4 layers of 5 mm diameter and 220 μm thickness, producing scaffolds with total dimensions of 5 mm diameter and 0.88 mm height. The porosity, average fiber diameter, and average pore diameter of each construct was assessed by microcomputed tomography (μCT) using a Bruker SkyScan 1272 (Billerica, MA). Scans were acquired at a voltage of 40 kV and a current of 250 μA, with a rotation step size of 0.4°, 8 μm/pixel, frame averaging of 6, and random movement of 10. Reconstruction, slicing, and analysis were performed in Bruker NRecon and CTAn software (Billerica, MA) and LabView (Austin, TX). For quantification of physical architectural properties, a proportional volume of interest was set at 75% scale of the x, v, and z axes, equally spaced from the scaffold edges.

[2] = system: Rat bone marrow derived MSCs; assay: Arsenazo III assay (bone-specific mineralization) of MSC-seeded printed scaffolds; format: cell-based; conditions: mixed osteochondral medium
Excerpt: (§1) Rat bone marrow derived MSCs (mesenchymal stem cells) were harvested by aspiration of bone marrow from the tibia of five 6-8 week old male Fischer 344 rats from Charles River Laboratories (Wilmington, MA), in accordance with protocols approved by the Rice Institutional Animal Care and Use Committee and in agreement with the animal care and use guidelines set forth by the National Institutes of Health. Cells from all rats were pooled to minimize inter-animal variability. Adherent cells were cultured in growth medium (DMEM with 10% v/v FBS and 1% v/v antibiotic-antimycotic) inside a humidified incubator at 37° C. and 5% CO2, and cryopreserved in liquid N2 until point of usage. All MSCs were used at Passage 3. Printed constructs were sterilized by exposure of both sides to UV light for 3 h, immersion in a sterile gradient (100%, 75%, 50%, 25%, 0%) of ethanol and PBS, and two additional washes in PBS. […] After weighing, each scaffold was frozen at −20° C. until ready for characterization. […] After homogenization, the proteinase K and acetic acid suspensions were allowed to digest for 16 h at 65° C. and room temperature, respectively, followed by quantification of biochemical content using assay kits. […] The bioactivity of PCL-peptide composites was determined by seeding MSCs on 3D printed constructs and investigating their ability to promote bone- and cartilage-specific ECM deposition in vitro. […]

[3] = system: Rat bone marrow derived MSCs; assay: DMMB assay (cartilage-specific sulfated glycosaminoglycans) of MSC-seeded printed scaffolds; format: cell-based
Excerpt: as §1, with “PBS. MSCs were seeded on the scaffolds by pipetting 30 μL of a 3.3×10^6 cells/mL suspension on top of each scaffold in a low-attachment 24-well plate. After 2 h, 970 μL of growth medium was gently added to each well. After 24 h of cell attachment, the growth medium was replaced with either chondrogenic, osteogenic, or osteochondral medium. Parallel chondrogenic (PCL-alkyne, PCL-NC) and osteogenic (PCL-alkyne, PCL-GHK) studies were conducted, in which scaffolds were cultured in both tissue-specific medium as well as mixed osteochondral medium.” for “PBS.”

[4] = system: Rat bone marrow derived MSCs; assay: PicoGreen assay (DNA content) of MSC-seeded printed scaffolds; format: cell-based; conditions: osteogenic and osteochondral media, up to 28 days, FIG. 5A
Excerpt: as §1

Substance | Average Fiber Diameter [1] [μm] | Average Pore Diameter [1] [μm] | Porosity [1] [%] | Bone-specific calcium content normalized to cellular content (mineralization per cell) ([2]; FIG. 5B) | Bone-specific calcium content normalized to scaffold mass (scaffold mineralization) ([2]; FIG. 5C) | sGAG content normalized to cellular content (sGAG deposition per cell) ([3]; chondrogenic medium, up to day 28, FIG. 5D) | sGAG content normalized to cellular content (sGAG deposition per cell) ([3]; mixed osteochondral medium, over time, FIG. 5D) | sGAG content normalized to scaffold mass ([3]; serum-free chondrogenic medium, FIG. 5E) | DNA content normalized to scaffold mass (cell proliferation) [4]
PCL-BMPm: PCL-alkyne click-conjugated to azide-terminated bone morphogenetic protein mimetic peptide (SEQ ID NO: 1, GGGRHVRISRSL) (GGGRHVRISRSL-NH2; not fully specified (N-terminus); also: N-terminal azide click-conjugated to PCL-alkyne) | 262 ± 48 | 419 ± 37 | 70.7 ± 4.2 | – | – | – | – | – | –
PCL-NC: PCL-alkyne click-conjugated to azide-terminated N-cadherin peptide (SEQ ID NO: 3, GGGHAVDI) (GGGHAVDI-NH2; not fully specified (N-terminus); also: N-terminal azide click-conjugated to PCL-alkyne) | 200 ± 9 | 432 ± 31 | 71.8 ± 3.7 | greater mineralization per cell | did not produce statistically significant effects on scaffold mineralization | large spike in cartilage-specific sGAG deposition per cell by day 28 | maintained a constant level of sGAG deposition per cell | statistically significant increase in mass-normalized sGAG content | statistically lower proliferation
